Results from patent US20060263802A1 (CRUCELL HOLLAND B V, published 2006).

Experiments:
Test in all cases: PEPSCAN ELISA, looped peptide, 10 ug/ml
[1] = biological target: looped/cyclic peptide … (rabies virus strain ERA)
[2] = biological target: looped/cyclic peptide … (rabies virus strain ERA); remark: listed apart in the source
[3] = biological target: looped/cyclic peptide … (rabies virus strain ERA); remark: listed apart in the source
[4] = biological target: looped/cyclic peptide … (rabies virus strain ERA); remark: listed apart in the source
[5] = biological target: looped/cyclic peptide … (rabies virus strain ERA); remark: listed apart in the source
[6] = biological target: looped/cyclic peptide … (rabies virus strain ERA); remark: listed apart in the source
[7] = biological target: looped/cyclic peptide … (rabies virus strain ERA); remark: listed apart in the source
[8] = biological target: looped/cyclic peptide … (rabies virus strain ERA); remark: listed apart in the source
[9] = biological target: looped/cyclic peptide … (rabies virus strain ERA); remark: listed apart in the source
[10] = biological target: looped/cyclic peptide … (rabies virus strain ERA); remark: listed apart in the source
[11] = biological target: looped/cyclic peptide … (rabies virus strain ERA); remark: listed apart in the source
[12] = biological target: looped/cyclic peptide … (rabies virus strain ERA); remark: listed apart in the source
[13] = biological target: looped/cyclic peptide … (rabies virus strain ERA); remark: listed apart in the source
[14] = biological target: looped/cyclic peptide … (rabies virus strain ERA); remark: listed apart in the source
[15] = biological target: looped/cyclic peptide … (rabies virus strain ERA); remark: listed apart in the source
[16] = biological target: looped/cyclic peptide … (rabies virus strain ERA); remark: listed apart in the source
[17] = biological target: looped/cyclic peptide … (rabies virus strain ERA); remark: listed apart in the source
[18] = biological target: looped/cyclic peptide … (rabies virus strain ERA); remark: listed apart in the source
[19] = biological target: looped/cyclic peptide … (rabies virus strain ERA); remark: listed apart in the source
[20] = biological target: looped/cyclic peptide … (rabies virus strain ERA); remark: listed apart in the source
[21] = biological target: looped/cyclic peptide … (rabies virus strain ERA); remark: listed apart in the source
[22] = biological target: looped/cyclic peptide … (rabies virus strain ERA); remark: listed apart in the source
[23] = biological target: looped/cyclic peptide … (rabies virus strain ERA); remark: listed apart in the source
[24] = biological target: looped/cyclic peptide … (rabies virus strain ERA); remark: listed apart in the source
[25] = biological target: looped/cyclic peptide … (rabies virus strain ERA); remark: listed apart in the source
[26] = biological target: looped/cyclic peptide … (rabies virus strain ERA); remark: listed apart in the source
[27] = biological target: looped/cyclic peptide … (rabies virus strain ERA); remark: listed apart in the source
[28] = biological target: looped/cyclic peptide … (rabies virus strain ERA); remark: listed apart in the source
[29] = biological target: looped/cyclic peptide … (rabies virus strain ERA); remark: listed apart in the source
[30] = biological target: looped/cyclic peptide … (rabies virus strain ERA); remark: listed apart in the source
[31] = biological target: looped/cyclic peptide … (rabies virus strain ERA); remark: listed apart in the source
[32] = biological target: looped/cyclic peptide … (rabies virus strain ERA); remark: listed apart in the source
[33] = biological target: looped/cyclic peptide … (rabies virus strain ERA); remark: listed apart in the source
[34] = biological target: looped/cyclic peptide … (rabies virus strain ERA); remark: listed apart in the source
[35] = biological target: looped/cyclic peptide … (rabies virus strain ERA); remark: listed apart in the source
[36] = biological target: looped/cyclic peptide … (rabies virus strain ERA); remark: listed apart in the source
[37] = biological target: looped/cyclic peptide … (rabies virus strain ERA); remark: listed apart in the source
[38] = biological target: looped/cyclic peptide … (rabies virus strain ERA); remark: listed apart in the source
[39] = biological target: looped/cyclic peptide … (rabies virus strain ERA); remark: listed apart in the source
[40] = biological target: looped/cyclic peptide … (rabies virus strain ERA); remark: listed apart in the source
[41] = biological target: looped/cyclic peptide … (rabies virus strain ERA); remark: listed apart in the source
[42] = biological target: looped/cyclic peptide … (rabies virus strain ERA); remark: listed apart in the source
[43] = biological target: looped/cyclic peptide … (rabies virus strain ERA); remark: listed apart in the source
[44] = biological target: looped/cyclic peptide … (rabies virus strain ERA); remark: listed apart in the source
[45] = biological target: looped/cyclic peptide … (rabies virus strain ERA); remark: listed apart in the source
[46] = biological target: looped/cyclic peptide … (rabies virus strain ERA); remark: listed apart in the source
[47] = biological target: looped/cyclic peptide … (rabies virus strain ERA); remark: listed apart in the source
[48] = biological target: looped/cyclic peptide … (rabies virus strain ERA); remark: listed apart in the source
[49] = biological target: looped/cyclic peptide … (rabies virus strain ERA); remark: listed apart in the source
[50] = biological target: looped/cyclic peptide … (rabies virus strain ERA); remark: listed apart in the source
[51] = biological target: looped/cyclic peptide … (rabies virus strain ERA); remark: listed apart in the source
[52] = biological target: looped/cyclic peptide … (rabies virus strain ERA); remark: listed apart in the source
[53] = biological target: looped/cyclic peptide … (rabies virus strain ERA); remark: listed apart in the source
[54] = biological target: looped/cyclic peptide … (rabies virus strain ERA); remark: listed apart in the source
[55] = biological target: looped/cyclic peptide … (rabies virus strain ERA); remark: listed apart in the source
[56] = biological target: looped/cyclic peptide … (rabies virus strain ERA); remark: listed apart in the source
[57] = biological target: looped/cyclic peptide … (rabies virus strain ERA); remark: listed apart in the source
[58] = biological target: looped/cyclic peptide … (rabies virus strain ERA); remark: listed apart in the source
[59] = biological target: looped/cyclic peptide … (rabies virus strain ERA); remark: listed apart in the source
[60] = biological target: looped/cyclic peptide … (rabies virus strain ERA); remark: listed apart in the source
[61] = biological target: looped/cyclic peptide … (rabies virus strain ERA); remark: listed apart in the source

B1: human monoclonal antibody CRJB (antibody, V domains shown)
VH: QITLKETGPTLVKPTQTLTLTCTFSGFSLSTSGVGVGWIRQPPGKALEWVTLIYWDDDKRYSPSLENRVTIRKDTSKNQVALTMTNMDPLDTGTYYCAHRQHISSFPWFDSWGQGTLVTVSS
VL: SYVLTQPPSVSVAPGKTARINCGGNNIEYRSVHWYQQKSGQAPVAVIYDNSDRPSGIPERFSGSKSGNTATLTISRVEAGDEADYYCQVWDISSDVVFGGGTKLTVLG
OD [1]: 129 OD | OD [2]: 97 OD | OD [3]: 64 OD | OD [4]: 97 OD | OD [5]: 100 OD | OD [6]: 101 OD | OD [7]: 92 OD | OD [8]: 147 OD | OD [9]: 100 OD | OD [10]: 85 OD | OD [11]: 97 OD | OD [12]: 104 OD | OD [13]: 92 OD | OD [14]: 85 OD | OD [15]: 89 OD | OD [16]: 93 OD | OD [17]: 58 OD | OD [18]: 80 OD | OD [19]: 101 OD | OD [20]: 106 OD | OD [21]: 94 OD | OD [22]: 92 OD | OD [23]: 96 OD | OD [24]: 78 OD | OD [25]: 93 OD | OD [26]: 72 OD | OD [27]: 87 OD | OD [28]: 92 OD | OD [29]: 101 OD | OD [30]: 105 OD | OD [31]: 102 OD | OD [32]: 90 OD | OD [33]: 113 OD | OD [34]: 83 OD | OD [35]: 88 OD | OD [36]: 90 OD | OD [37]: 100 OD | OD [38]: 94 OD | OD [39]: 104 OD | OD [40]: 112 OD | OD [41]: 87 OD | OD [42]: 101 OD | OD [43]: 103 OD | OD [44]: 90 OD | OD [45]: 102 OD | OD [46]: 92 OD | OD [47]: 100 OD | OD [48]: 82 OD | OD [49]: 76 OD | OD [50]: 71 OD | OD [51]: 85 OD | OD [52]: 93 OD | OD [53]: 93 OD | OD [54]: 91 OD | OD [55]: 79 OD | OD [56]: 104 OD | OD [57]: 99 OD | OD [58]: 129 OD | OD [59]: 71 OD | OD [60]: 113 OD | OD [61]: 97 OD
